Data: paper PMC2413239

Target: X. laevis FcRγ subunit, c-myc-tagged (X. laevis)

**Q.** With “XFL1.7-HA with its own TM1 region (X. laevis XFL1.7, extracellular plus transmembrane part) (domain or fragment)” as the substance, how does the surface expression of XFL1.7-HA on transiently transfected 293T cells (anti-HA surface staining, flow cytometry), alone against co-transfected with FcRγ read?
**A.** 2 fold
